From paper PMC3817407 come the findings set out here.

One assay addresses T1, ECF27_4265.
T1 chain: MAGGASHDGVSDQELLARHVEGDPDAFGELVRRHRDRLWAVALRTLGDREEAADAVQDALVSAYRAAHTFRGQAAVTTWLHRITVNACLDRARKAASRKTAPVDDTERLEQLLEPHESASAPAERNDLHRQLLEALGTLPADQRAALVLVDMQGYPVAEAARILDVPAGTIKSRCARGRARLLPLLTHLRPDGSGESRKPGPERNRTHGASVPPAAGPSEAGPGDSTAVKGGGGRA

The target in a further assay is T2, ECF16_973.
T2 chain: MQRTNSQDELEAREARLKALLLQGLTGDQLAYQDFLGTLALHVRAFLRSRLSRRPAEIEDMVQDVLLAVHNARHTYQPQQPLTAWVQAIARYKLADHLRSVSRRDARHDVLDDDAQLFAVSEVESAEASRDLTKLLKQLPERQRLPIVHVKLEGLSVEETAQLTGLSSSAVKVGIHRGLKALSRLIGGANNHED

Another assay concerns the target T3, ECF31_34.
T3 chain: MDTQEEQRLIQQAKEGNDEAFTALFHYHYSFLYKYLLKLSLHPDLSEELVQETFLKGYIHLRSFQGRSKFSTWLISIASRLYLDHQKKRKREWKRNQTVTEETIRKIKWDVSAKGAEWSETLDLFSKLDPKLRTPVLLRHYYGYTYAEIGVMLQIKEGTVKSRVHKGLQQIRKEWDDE

The target of the next assay is T4, ECF34_1384.
T4 chain: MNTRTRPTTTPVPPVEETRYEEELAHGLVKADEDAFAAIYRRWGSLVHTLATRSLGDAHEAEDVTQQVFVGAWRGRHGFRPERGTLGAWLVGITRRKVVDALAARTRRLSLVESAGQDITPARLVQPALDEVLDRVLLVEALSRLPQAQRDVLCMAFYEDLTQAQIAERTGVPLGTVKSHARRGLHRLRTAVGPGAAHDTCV

The next assay addresses T5, ECF04_1609.
T5 chain: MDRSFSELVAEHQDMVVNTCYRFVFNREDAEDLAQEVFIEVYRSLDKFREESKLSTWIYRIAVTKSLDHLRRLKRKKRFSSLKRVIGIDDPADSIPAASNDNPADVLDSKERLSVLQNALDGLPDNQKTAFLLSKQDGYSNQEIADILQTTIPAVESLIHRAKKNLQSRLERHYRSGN

In a further assay the target is T6, ECF17_1458.
T6 chain: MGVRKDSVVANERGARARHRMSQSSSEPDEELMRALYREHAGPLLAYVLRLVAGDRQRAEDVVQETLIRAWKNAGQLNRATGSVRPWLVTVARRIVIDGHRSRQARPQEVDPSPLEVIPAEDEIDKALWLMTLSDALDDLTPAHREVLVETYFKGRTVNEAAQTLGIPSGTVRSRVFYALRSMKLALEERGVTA

Another assay deals with T7, ECF11_987.
T7 chain: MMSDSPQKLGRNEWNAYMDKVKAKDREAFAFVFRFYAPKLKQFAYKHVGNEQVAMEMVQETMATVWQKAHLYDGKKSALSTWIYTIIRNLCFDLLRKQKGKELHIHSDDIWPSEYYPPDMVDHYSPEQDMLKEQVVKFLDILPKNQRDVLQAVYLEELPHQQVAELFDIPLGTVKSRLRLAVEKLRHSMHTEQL

For the next assay, the target named is T8, ECF33_375.
T8 chain: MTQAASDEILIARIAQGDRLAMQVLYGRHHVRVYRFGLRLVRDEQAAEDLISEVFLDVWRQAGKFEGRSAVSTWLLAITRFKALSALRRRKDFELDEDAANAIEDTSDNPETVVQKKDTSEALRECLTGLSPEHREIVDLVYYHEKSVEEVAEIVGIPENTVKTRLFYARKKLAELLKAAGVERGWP

The target of the next assay is T9, ECF16_3622.
T9 chain: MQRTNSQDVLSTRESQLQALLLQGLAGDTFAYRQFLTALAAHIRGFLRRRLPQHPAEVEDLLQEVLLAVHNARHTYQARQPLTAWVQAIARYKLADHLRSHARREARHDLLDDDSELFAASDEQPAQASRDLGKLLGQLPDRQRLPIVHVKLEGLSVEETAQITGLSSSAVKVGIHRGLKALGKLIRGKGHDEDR

The target in the next assay is T10, ECF22_4450.
T10 chain: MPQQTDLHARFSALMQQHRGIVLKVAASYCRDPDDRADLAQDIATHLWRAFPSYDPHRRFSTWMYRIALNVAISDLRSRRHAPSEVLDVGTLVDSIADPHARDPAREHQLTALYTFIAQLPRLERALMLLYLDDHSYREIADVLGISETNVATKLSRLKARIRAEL

Another assay addresses T11, ECF17_1691.
T11 chain: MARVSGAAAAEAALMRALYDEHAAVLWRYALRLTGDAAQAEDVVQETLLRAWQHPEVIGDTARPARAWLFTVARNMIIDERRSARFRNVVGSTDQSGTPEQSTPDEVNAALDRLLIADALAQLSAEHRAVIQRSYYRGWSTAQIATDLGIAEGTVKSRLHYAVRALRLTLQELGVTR

Another assay deals with T12, ECF11_3726.
T12 chain: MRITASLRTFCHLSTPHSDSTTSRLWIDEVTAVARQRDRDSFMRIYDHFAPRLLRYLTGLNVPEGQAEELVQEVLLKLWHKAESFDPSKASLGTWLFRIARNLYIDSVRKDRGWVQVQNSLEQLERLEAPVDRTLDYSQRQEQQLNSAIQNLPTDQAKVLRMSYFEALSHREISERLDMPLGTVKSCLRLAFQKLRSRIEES

Another assay concerns the target T13, ECF14_1324.
T13 chain: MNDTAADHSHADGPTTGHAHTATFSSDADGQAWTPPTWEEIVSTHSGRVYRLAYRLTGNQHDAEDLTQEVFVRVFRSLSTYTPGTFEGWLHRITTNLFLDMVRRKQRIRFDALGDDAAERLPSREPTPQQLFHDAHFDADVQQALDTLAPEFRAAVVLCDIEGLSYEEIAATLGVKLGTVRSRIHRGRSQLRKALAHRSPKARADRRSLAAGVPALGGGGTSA

The target in a further assay is T14, ECF12_807.
T14 chain: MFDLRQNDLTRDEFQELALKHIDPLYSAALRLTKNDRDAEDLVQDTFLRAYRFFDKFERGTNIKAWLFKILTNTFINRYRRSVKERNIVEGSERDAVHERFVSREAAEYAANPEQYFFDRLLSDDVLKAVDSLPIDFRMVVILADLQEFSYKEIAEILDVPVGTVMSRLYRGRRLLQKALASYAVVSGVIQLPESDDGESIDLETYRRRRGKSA

B1: AS22_1147 (protein)
chain: MELDDIAVAWRSLEQRLDQHAALAGQVLGDLRSHAARAHLRPLWLSQSAQLLCAIALSGLVAHSWLAFPEQAAAIVGGVLLQIWCVALAASAARQLWLLSQLDFARPLLQTQRALAQLRRWRTRVAPWLGVAFWVLWVAVADAAWRALTGRSLPYAWLLCNLLVGVLGGIGTWLGYRRLQRSGHPWLERLDTVHAGRSVARTETLLEQIARFQRE
On to B1, for which the fold repression amounted to 1.86 with ECF27_4265; 2.57 in the assay with ECF16_973; 2.31 in the assay with ECF31_34; 2.09 with ECF34_1384; 3.52 with ECF04_1609; 2.2 with ECF17_1458. The fold repression was determined as 3.07 with ECF27_1331; 3.16 with ECF11_987; 1.26 with ECF33_375; 2.91 in the assay with ECF16_3622; 35.7 with ECF22_4450; 1.74 with ECF17_1691. Besides, the fold repression with ECF11_3726 was 3.72; with ECF14_1324, 4.18; with ECF12_807, 3.45.

B2: AS02_915 (protein)
chain: MEKTGQEWVSASVDGETDRQTLAELAADTDSHAKWQRYHLMGDAMRDELPQAMPLDLSARIAAALEDEPTILAPKVEREATQAPSRAVVVPFMRQLGQYGIAAAVALMAVVGVQNYQSTQDDAPLPVLNTRPLVGTATPVSLQTGPVANQNQGNANDQLLEQRRRINAYLQDHMLQQRLNTGAVVDDNSEVTPIPVNR
As for B2, the fold repression in the assay with ECF27_4265 came out at 2.08; in the assay with ECF16_973, 3.34; with ECF31_34, 3.89; with ECF34_1384, 3.28; with ECF04_1609, 3.74; with ECF17_1458 it was 2.74. The fold repression in the assay with ECF27_1331 was 4.27; with ECF11_987, 3.88; with ECF33_375, 2.44; with ECF16_3622, 4.3; with ECF22_4450, 4.13; in the assay with ECF17_1691 it was 2.73. Also, the fold repression in the assay with ECF11_3726 was 7.44; in the assay with ECF14_1324, 4.42; with ECF12_807 it was 9.79.

B3: AS20_992 (protein)
chain: MTPERFVHLADAYGADLQRWPSAERAAAQALLDCGDAQAVAALRQAHWLDSQLDRYQVPAPSPALAQRIIAAAQQPGAPFWSRYAGWLASLGWVGVGLTGVAAGMLAVALSLPLSTSAEALPSVFDQSDAEFVLSINAEEAEQ
With B3, the fold repression came to 1.1 with ECF27_4265; 1.7 with ECF16_973; 1.96 with ECF31_34; 1.64 in the assay with ECF34_1384; 1.95 in the assay with ECF04_1609; 1.5 with ECF17_1458. Moreover, the fold repression with ECF27_1331 stood at 2.11; in the assay with ECF11_987, 2.81; with ECF33_375 it was 1.04; in the assay with ECF16_3622, 1.71; with ECF22_4450 it was 2.29; with ECF17_1691, 2.05. Besides, the fold repression with ECF11_3726 was 1.91; with ECF14_1324, 1.64; with ECF12_807, 1.4.

B4: AS22_4450 (protein)
chain: MELDDMKHAWQTLEQRLDQQAAQTGQLLGVVHEETVRSSLRPLWVAQTAQLLCALALAIVSARSWIPHTDQPVAVIGGVLLQAWCMALAISAMVQLQLLTQFNVAGPLLRTQHALARLRRWRTRVAPWLGVAFWVLWIAVADALWRALTGQTLPTDWLVLNLLVGVAGGIGTWLGFRRLQRAQHPWLERIDRAHAGTGVIRAERMLEEIARFQRD
As to B4, the fold repression stood at 1.4 in the assay with ECF27_4265; 1.71 with ECF16_973; 1.48 with ECF31_34; 1.66 with ECF34_1384; 1.43 in the assay with ECF04_1609; 1.23 in the assay with ECF17_1458. The fold repression amounted to 1.37 with ECF27_1331; 1.89 with ECF11_987; 1.4 with ECF33_375; 1.79 with ECF16_3622; 12.7 with ECF22_4450; 1.52 with ECF17_1691. The values for the fold repression in the assay with ECF11_3726, in the assay with ECF14_1324 and with ECF12_807 were 1.93, 2.85 and 1.67, respectively.

B5: AS25_1643_cl43 (protein)
chain: MTTDSNFNDPCRRQFSRDLPQKMARHTNEATGAMDMVKRDRFELLSAYLGGEVTAAERRQVEDWPANDVAVQRLYSRLLKLRQGIRTMPIPTAQQSPETTAEQVFAKVNRRSRLAWKLGGAAVAACVIGAVTNWLPGRQTGIPQLAQQPQEQPTQAVTTPDALPMIALNNPVIEIPKAAVASPTKFIQPQPQLGEIPPDIN
Regarding B5, the fold repression was determined as 0.954 with ECF27_4265; 1.22 with ECF16_973; 1.58 in the assay with ECF31_34; 2.43 with ECF34_1384; 2.44 with ECF04_1609; 2.2 with ECF17_1458. Further, the fold repression with ECF27_1331 is 1.96; with ECF11_987 it was 2.43; in the assay with ECF33_375, 0.709; in the assay with ECF16_3622 it was 2.26; with ECF22_4450, 3.35; with ECF17_1691 it was 1.92. In addition, the fold repression in the assay with ECF11_3726 was found to be 4.29; with ECF14_1324 it was 1.77; with ECF12_807, 4.23.
